IntAct's records for PubMed 24792722

B1: Rho guanine nucleotide exchange factor 7 (Homo sapiens), Q14155 (parent)
chain: MNSAEQTVTWLITLGVLESPKKTISDPEGFLQASLKDGVVLCRLLERLLPGTIEKVYPEPRSESECLSNIREFLRGCGASLRLELLFPPSQPPQHLVTTILLSASTFDANDLYQGQNFNKVLSSLVTLNKVTADIGLGSDSVCARPSSHRIKSFDSLGSQSLHTRTSKLFQGQYRSLDMTDNSNNQLVVRAKFNFQQTNEDELSFSKGDVIHVTRVEEGGWWEGTLNGRTGWFPSNYVREVKASEKPVSPKSGTLKSPPKGFDTTAINKSYYNVVLQNILETENEYSKELQTVLSTYLRPLQTSEKLSSANISYLMGNLEEICSFQQMLVQSLEECTKLPEAQQRVGGCFLNLMPQMKTLYLTYCANHPSAVNVLTEHSEELGEFMETKGASSPGILVLTTGLSKPFMRLDKYPTLLKELERHMEDYHTDRQDIQKSMAAFKNLSAQCQEVRKRKELELQILTEAIRNWEGDDIKTLGNVTYMSQVLIQCAGSEEKNERYLLLFPNVLLMLSASPRMSGFIYQGKLPTTGMTITKLEDSENHRNAFEISGSMIERILVSCNNQQDLQEWVEHLQKQTKVTSVGNPTIKPHSVPSHTLPSHPVTPSSKHADSKPAPLTPAYHTLPHPSHHGTPHTTINWGPLEPPKTPKPWSLSCLRPAPPLRPSAALCYKEDLSKSPKTMKKLLPKRKPERKPSDEEFASRKSTAALEEDAQILKVIEAYCTSAKTRQTLNSTWQGTDLMHNHVLADDDQPSLDSLGRRSSLSRLEPSDLSEDSDYDSIWTAHSYRMGSTSRKSCCSYISHQN

Variants of: B1
Conditions: with rac1_human RAC1, P63000

Variant | effect of a mutation on the interaction
P340E | increasing interaction
